Data on 7 sequences can be found in the Immune Epitope Database (IEDB).

One assay addresses HLA-B*48:01. The experiment in a line: IEDB peptide-MHC binding, purified MHC/competitive/fluorescence; filed as Kd, often an IC50 or EC50 that approximates it; ≥ and ≤ were set here for values at or beyond the usual limits of such assays.
Another assay concerns the target HLA-C*07:02. The experiment in a line: IEDB peptide-MHC binding, purified MHC/direct/fluorescence; filed as Kd, often an IC50 or EC50 that approximates it; ≥ and ≤ were set here for values at or beyond the usual limits of such assays. As to conditions: source organism: Entamoeba histolytica HM-1:IMSS.
Assay [1] concerns the target HLA-A*01:01. Described as above. To be noted: source organism: Marburg virus - Musoke, Kenya, 1980.
Another assay has as its target HLA-A*26:01. The description is as above.
In another assay the target is HLA-A*11:01. The description is as above. As to conditions: source organism: Marburg virus - Musoke, Kenya, 1980.
The next assay deals with HLA-A*03:01. The assay is described as above. As to conditions: source organism: Marburg virus - Musoke, Kenya, 1980.
For another assay, the target named is HLA-B*08:02. The assay is described as above. To be noted: source organism: Orthomarburgvirus marburgense.
A further assay addresses HLA-B*18:01. Described as above.
The target of assay [2] is HLA-B*39:01. Described as above.
For a further assay, the target named is HLA-B*58:01. The description is as above. As to conditions: source organism: Marburg virus - Musoke, Kenya, 1980.
A further assay addresses HLA-A*31:01. The assay is described as above. As to conditions: source organism: Marburg virus - Musoke, Kenya, 1980.
The target in assay [3] is HLA-B*15:01. The assay is described as above. To be noted: source organism: Marburg virus - Musoke, Kenya, 1980.
Another assay deals with HLA-A*24:03. The description is as above. To be noted: source organism: Marburg virus - Musoke, Kenya, 1980.
The target in a further assay is HLA-B*46:01. Described as above. As to conditions: source organism: Marburg virus - Musoke, Kenya, 1980.
In a further assay the target is HLA-B*27:05. The description is as above. As to conditions: source organism: Marburg virus - Musoke, Kenya, 1980.
For a further assay, the target named is HLA-B*57:01. The assay is described as above.
The target of the next assay is HLA-B*40:01. Described as above. As to conditions: source organism: Marburg virus - Musoke, Kenya, 1980.
In the next assay the target is HLA-B*15:17. The experiment in a line: IEDB peptide-MHC binding, purified MHC/competitive/fluorescence; filed as Kd, often an IC50 or EC50 that approximates it; ≥ and ≤ were set here for values at or beyond the usual limits of such assays. As to conditions: source organism: Orthomarburgvirus marburgense.
Assay [4] concerns the target HLA-A*02:01. Described as above. To be noted: source organism: Orthomarburgvirus marburgense.
Assay [5] concerns the target HLA-A*69:01. The assay is described as above. To be noted: source organism: Orthomarburgvirus marburgense.
A further assay deals with HLA-A*02:06. The assay is described as above. To be noted: source organism: Orthomarburgvirus marburgense.
The target of a further assay is HLA-B*07:02. Described as above.
In another assay the target is HLA-B*08:01. The description is as above. As to conditions: source organism: Escherichia coli O157:H7 str. EDL933.
Assay [6] concerns the target HLA-B*39:01. The description is as above. As to conditions: source organism: Escherichia coli O157:H7 str. EDL933.
Assay [7] deals with HLA-B*15:01. The description is as above. To be noted: source organism: Escherichia coli O157:H7 str. EDL933.
The target in assay [8] is HLA-A*01:01. The experiment in a line: IEDB peptide-MHC binding, purified MHC/competitive/radioactivity; filed as Kd, often an IC50 or EC50 that approximates it; ≥ and ≤ were set here for values at or beyond the usual limits of such assays. As to conditions: source organism: Mammarenavirus machupoense.
For a further assay, the target named is HLA-A*30:01. Described as above. To be noted: source organism: Mammarenavirus machupoense.
A further assay deals with HLA-A*30:02. Described as above. As to conditions: source organism: Mammarenavirus machupoense.
A further assay addresses HLA-A*29:02. Described as above. As to conditions: source organism: Mammarenavirus machupoense.
The next assay addresses HLA-A*32:01. The assay is described as above. As to conditions: source organism: Mammarenavirus machupoense.
In a further assay the target is HLA-B*27:03. The experiment in a line: IEDB peptide-MHC binding, purified MHC/direct/fluorescence; filed as Kd, often an IC50 or EC50 that approximates it; ≥ and ≤ were set here for values at or beyond the usual limits of such assays. As to conditions: source organism: Mammarenavirus machupoense.
Another assay concerns the target HLA-A*02:03. The description is as above. To be noted: source organism: Mammarenavirus machupoense.
The target in a further assay is HLA-A*02:19. The description is as above. As to conditions: source organism: Mammarenavirus machupoense.
The target of assay [9] is HLA-A*02:01. Described as above. As to conditions: source organism: Mammarenavirus machupoense.
In the next assay the target is HLA-B*51:01. Described as above. As to conditions: source organism: Mammarenavirus machupoense.
The target in assay [10] is HLA-A*69:01. Described as above. To be noted: source organism: Mammarenavirus machupoense.
For the next assay, the target named is HLA-A*02:11. The assay is described as above. To be noted: source organism: Mammarenavirus machupoense.
The next assay deals with HLA-A*68:02. The assay is described as above. As to conditions: source organism: Mammarenavirus machupoense.
Another assay deals with HLA-A*02:12. Described as above. To be noted: source organism: Mammarenavirus machupoense.
In another assay the target is HLA-A*02:16. Described as above. As to conditions: source organism: Mammarenavirus machupoense.
Setting [11] is: source organism: Orthomarburgvirus marburgense.
Where [12] appears, read: source organism: Marburg virus - Musoke, Kenya, 1980.
The mark [13] stands for this setting: source organism: Mammarenavirus machupoense.

The Kd is the concentration at which binding is half-saturated. As to AQELVGHQL, the Kd with HLA-B*48:01 (source organism: Escherichia coli O139:H28 str. E24377A) is no less than 20 µM.

For FQFTLHWEL, the Kd in the assay with HLA-C*07:02 was found to be 2.05 µM; in the assay with HLA-B*48:01 (source organism: Entamoeba histolytica HM-1:IMSS), 0.726 µM.

With LYKTIVNIW, the dissociation constant Kd in the assay with HLA-A*01:01 [1], with HLA-A*26:01 (setting [11]), with HLA-A*11:01, with HLA-A*03:01, with HLA-B*08:02 and with HLA-B*18:01 (setting [12]) was no less than 20 µM each time. Also, the Kd is no less than 20 µM in the assay with HLA-B*39:01 [2] (setting [11]); no less than 20 µM with HLA-B*58:01; no less than 20 µM with HLA-A*31:01; no less than 20 µM with HLA-B*15:01 [3]; 0.16 µM with HLA-A*24:03; no less than 20 µM in the assay with HLA-B*46:01. For the same sequence, the dissociation constant (Kd) is no less than 20 µM with HLA-B*27:05; no less than 20 µM in the assay with HLA-B*57:01 (setting [12]); no less than 20 µM in the assay with HLA-B*40:01; no less than 20 µM with HLA-B*15:17; 0.0509 µM with HLA-A*02:01 [4]; 1.58 µM with HLA-A*69:01 [5]. In addition, the dissociation constant (Kd) with HLA-B*48:01 (setting [11]) is no less than 20 µM; in the assay with HLA-A*02:06 it was 0.11 µM.

Take GQAARDKHL: the Kd in the assay with HLA-B*48:01 (source organism: Burkholderia vietnamiensis G4) is no less than 20 µM.

Turning to MQRSGMLSL, the Kd with HLA-B*07:02 (source organism: Escherichia coli O157:H7 str. EDL933) is 0.007 µM; with HLA-B*08:01, 0.197 µM; with HLA-B*39:01 [6] it was 0.061 µM; with HLA-B*15:01 [7] it was 0.08 µM.

With LITEQFLCY, the dissociation constant (Kd) is 0.0647 µM in the assay with HLA-A*01:01 [8]; 6.33 µM with HLA-A*30:01; 1.86 µM in the assay with HLA-A*30:02; 0.00132 µM with HLA-A*29:02; no less than 25 µM with HLA-A*32:01; no less than 20 µM with HLA-B*27:03. The Kd with HLA-A*26:01 (setting [13]), with HLA-A*02:03, with HLA-A*02:19, with HLA-A*02:01 [9], with HLA-B*51:01 and with HLA-A*69:01 [10] was no less than 20 µM in each case. Also, the Kd with HLA-A*02:11, with HLA-B*18:01 (setting [13]), in the assay with HLA-B*39:01 [2] (setting [13]), in the assay with HLA-A*68:02, with HLA-A*02:12 and with HLA-B*57:01 (setting [13]) was no less than 20 µM throughout. In addition, the Kd in the assay with HLA-A*02:16 was no less than 20 µM.

In turn, FPSSSYRRPV yielded a Kd with HLA-B*07:02 (source organism: Influenza A virus (A/Fort Monmouth/1/1947-mouse adapted(H1N1))) of 0.0016 µM.
